# B1: PGDM1400 IgG1 (antibody, V domains shown)
# VH: QAQLVQSGPEVRKPGTSVKVSCKAPGNTLKTYDLHWVRSVPGQGLQWMGWISHEGDKKVIVERFKAKVTIDWDRSTNTAYLQLSGLTSGDTAVYYCAKGSKHRLRDYALYDDDGALNWAVDVDYLSNLEFWGQGTAVTVSS
# VL: DFVLTQSPHSLSVTPGESASISCKSSHSLIHGDRNNYLAWYVQKPGRSPQLLIYLASSRASGVPDRFSGSGSDKDFTLKISRVETEDVGTYYCMQGRESPWTFGQGTKVDIKR
# B2: human Fcγ receptor I (hFcγRI) (receptor, UniProt P12314 16-288, looked up)
# chain: QVDTTKAVITLQPPWVSVFQEETVTLHCEVLHLPGSSSTQWFLNGTATQTSTPSYRITSASVNDSGEYRCQRGLSGRSDPIQLEIHRGWLLLQVSSRVFTEGEPLALRCHAWKDKLVYNVLYYRNGKAFKFFHWNSNLTILKTNISHNGTYHCSGMGKHRYTSAGISVTVKELFPAPVLNASVTSPLLEGNLVTLSCETKLLLQRPGLQLYFSFYMGSKTLRGRNTSSEYQILTARREDSGLYWCEAATEDGNVLKRSPELELQVLGLQLPTP
# B3: human FcγRIIb (hFcγRIIb) (receptor, UniProt P31994 43-217, looked up)
# chain: TPAAPPKAVLKLEPQWINVLQEDSVTLTCRGTHSPESDSIQWFHNGNLIPTHTQPSYRFKANNNDSGEYTCQTGQTSLSDPVHLTVLSEWLVLQTPHLEFQEGETIVLRCHSWKDKPLVKVTFFQNGKSKKFSRSDPNFSIPQANHSHSGDYHCTGNIGYTLYSSKPVTITVQAP
# B4: human FcγRIIa (hFcγRIIa) (receptor, UniProt P12318 34-217, looked up)
# chain: QAAAPPKAVLKLEPPWINVLQEDSVTLTCQGARSPESDSIQWFHNGNLIPTHTQPSYRFKANNNDSGEYTCQTGQTSLSDPVHLTVLSEWLVLQTPHLEFQEGETIMLRCHSWKDKPLVKVTFFQNGKSQKFSHLDPTFSIPQANHSHSGDYHCTGNIGYTLFSSKPVTITVQVPSMGSSSPMG
# B5: N49P7 IgG1 (antibody, V domains shown)
# VH: ADLVQSGAVVKKPGDSVRISCEAQGYRFPDYIIHWIRRAPGQGPEWMGWMNPMGGQVNIPWKFQGRVSMTRDTSIETAFLDLRGLKSDDTAVYYCVRDRSNGSGKRFESSNWFLDLWGRGTAVTIQS
# VL: QSALTQPRSVSASPGQSVTISCTGTHNLVSWCQHQPGRAPKLLIYDFNKRPSGVPDRFSGSGSGGTASLTITGLQDDDDAEYFCWAYEAFGGGTKLTVLG
# B6: 10E8v4 IgG1 (antibody, V domains shown)
# VH: EVRLVESGGGLVKPGGSLRLSCSASGFDFDNAWMTWVRQPPGKGLEWVGRITGPGEGWSVDYAESVKGRFTISRDNTKNTLYLEMNNVRTEDTGYYFCARTGKYYDFWSGYPPGEEYFQDWGQGTLVIVSS
# VL: SELTQDPAVSVALKQTVTITCRGDSLRSHYASWYQKKPGQAPVLLFYGKNNRPSGIPDRFSGSASGNRASLTITGAQAEDEADYYCSSRDKSGSRLSVFGGGTKLTVLS
# Columns and labels:
# [1] = molecular target: T1, BG5050 SOSIP.664 D368R (HIV-1); experiment: BLI, His-tagged target on Ni-NTA
# T1 construct: also called BG505 SOSIP D368R; BG505 SOSIP.664_D368R trimer
# [2] = molecular target: soluble CD4 (UniProt P01730 26-390); experiment: BLI, His-tagged target on Ni-NTA
# [3] = molecular target: T-01 MB IgG1 LALA P329G (LALAP); experiment: BLI, His-tagged receptor on Ni-NTA;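 further: octet RED96 biolayer interferometry of Fc-mutant Multabodies binding human FcγRI, FcγRIIa or FcγRIIb, with the His-tagged receptors captured on Ni-NTA biosensors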
# Procedure: (§1) The binding kinetics and affinity to Fc receptors—human Fcγ receptor I (hFcγRI), hFcγRIIa, and hFcγRIIb—of Multabodies comprising different Fc mutations were determined by biolayer interferometry (BLI) using an Octet RED96 BLI system (Pall ForteBio).
# (§2) Briefly, His-tagged Fc receptors were loaded onto Ni-NTA biosensors to reach a signal response of 0.8 nm.
# [4] = molecular target: T-01 MB IgG2 K288A P329G; experiment: BLI, His-tagged receptor on Ni-NTA;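 further: octet RED96 biolayer interferometry of Fc-mutant Multabodies binding human FcγRI, FcγRIIa or FcγRIIb, with the His-tagged receptors captured on Ni-NTA biosensors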
# Procedure: as §1, §2
# [5] = molecular target: T2, T-01 MB IgG1 LALAP K288A; experiment: BLI, His-tagged receptor on Ni-NTA;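 further: octet RED96 biolayer interferometry of Fc-mutant Multabodies binding human FcγRI, FcγRIIa or FcγRIIb, with the His-tagged receptors captured on Ni-NTA biosensors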
# T2 construct: also called K288A+LALAP
# Procedure: as §1, §2
# [6] = molecular target: T3, T-01 MB IgG1 LALAP I253A; experiment: BLI, His-tagged receptor on Ni-NTA;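 further: octet RED96 biolayer interferometry of Fc-mutant Multabodies binding human FcγRI, FcγRIIa or FcγRIIb, with the His-tagged receptors captured on Ni-NTA biosensors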
# T3 construct: also called I253A+LALAP
# Procedure: as §1, §2
# [7] = molecular target: T4, T-01 MB.v2 IgG1 WT; experiment: BLI, His-tagged receptor on Ni-NTA
# T4 construct: also called Multabody v2
# Procedure: as §1, §2
# [8] = molecular target: T5, T-01 MB.v2 IgG1 M428L N434S (LS); experiment: BLI, His-tagged receptor on Ni-NTA
# T5 construct: also called T-01 MB.v2 IgG1 LS
# Procedure: as §1, §2
# [9] = molecular target: T6, T-01 MB IgG1 WT; experiment: BLI, His-tagged receptor on Ni-NTA
# T6 construct: also called T-01 MB with wild-type IgG1 Fc
# Procedure: as §1, §2
# [10] = molecular target: T-01 MB IgG2 WT; experiment: BLI, His-tagged receptor on Ni-NTA
# Procedure: as §1, §2
# [11] = molecular target: T-01 MB IgG4 WT; experiment: BLI, His-tagged receptor on Ni-NTA
# Procedure: as §1, §2
# [12] = molecular target: T-01 MB IgG1 I253A; experiment: BLI, His-tagged receptor on Ni-NTA
# Procedure: as §1, §2
# [13] = molecular target: T-01 MB IgG1 I253V; experiment: BLI, His-tagged receptor on Ni-NTA
# Procedure: as §1, §2
# [14] = molecular target: T-01 MB IgG1 K288A; experiment: BLI, His-tagged receptor on Ni-NTA
# Procedure: as §1, §2
# [15] = molecular target: T-01 MB IgG1 P329G; experiment: BLI, His-tagged receptor on Ni-NTA
# Procedure: as §1, §2
# [16] = molecular target: T7, T-01 MB IgG1 L234A L235A (LALA); experiment: BLI, His-tagged receptor on Ni-NTA
# T7 construct: also called T-01 MB IgG1 LALA
# Procedure: as §1, §2
binder,measurement,setting,value
B1,Kd,[1],38 nM
same,koff,[1],0.000262 s⁻¹
same,kon,[1],6900 M⁻¹ s⁻¹
same,binding result,[2],no binding
B2,Kd,[3],0.684 nM
same,koff,[3],0.000437 s⁻¹
same,kon,[3],639000 M⁻¹ s⁻¹
same,Kd,[4],0.132 nM
same,koff,[4],9.13e-05 s⁻¹
same,kon,[4],694000 M⁻¹ s⁻¹
same,Kd,[5],0.269 nM
same,koff,[5],0.000161 s⁻¹
same,kon,[5],601000 M⁻¹ s⁻¹
same,Kd,[6],0.768 nM
same,koff,[6],0.000656 s⁻¹
same,kon,[6],853000 M⁻¹ s⁻¹
same,Kd,[7],< 0.001 nM
same,koff,[7],< 1e-07 s⁻¹
same,kon,[7],312000 M⁻¹ s⁻¹
same,Kd,[8],< 0.001 nM
same,koff,[8],< 1e-07 s⁻¹
same,kon,[8],431000 M⁻¹ s⁻¹
same,Kd,[9],< 0.001 nM
same,koff,[9],< 1e-07 s⁻¹
same,kon,[9],672000 M⁻¹ s⁻¹
same,Kd,[10],2.03 nM
same,koff,[10],0.00154 s⁻¹
same,kon,[10],758000 M⁻¹ s⁻¹
same,Kd,[11],< 0.001 nM
same,koff,[11],< 1e-07 s⁻¹
same,kon,[11],835000 M⁻¹ s⁻¹
same,Kd,[12],< 0.001 nM
same,koff,[12],< 1e-07 s⁻¹
same,kon,[12],605000 M⁻¹ s⁻¹
same,Kd,[13],< 0.001 nM
same,koff,[13],< 1e-07 s⁻¹
same,kon,[13],756000 M⁻¹ s⁻¹
same,Kd,[14],< 0.001 nM
same,koff,[14],< 1e-07 s⁻¹
same,kon,[14],578000 M⁻¹ s⁻¹
same,Kd,[15],0.0375 nM
same,koff,[15],2.49e-05 s⁻¹
same,kon,[15],665000 M⁻¹ s⁻¹
same,Kd,[16],0.0297 nM
same,koff,[16],1.66e-05 s⁻¹
same,kon,[16],558000 M⁻¹ s⁻¹
B3,binding result,[3],no binding (tested: serial dilutions 20-0.65 nM)
same,binding result,[4],no binding (tested: serial dilutions 20-0.65 nM)
same,binding result,[5],no binding (tested: serial dilutions 20-0.65 nM)
same,binding result,[6],no binding (tested: serial dilutions 20-0.65 nM)
same,binding result,[7],no binding (tested: serial dilutions 20-0.65 nM)
same,binding result,[8],no binding (tested: serial dilutions 20-0.65 nM)
same,Kd,[9],< 0.001 nM
same,koff,[9],< 1e-07 s⁻¹
same,kon,[9],1.19e+06 M⁻¹ s⁻¹
same,Kd,[10],1.61 nM
same,koff,[10],0.00103 s⁻¹
same,kon,[10],637000 M⁻¹ s⁻¹
same,Kd,[11],0.223 nM
same,koff,[11],0.000305 s⁻¹
same,kon,[11],1.37e+06 M⁻¹ s⁻¹
same,Kd,[12],< 0.001 nM
same,koff,[12],< 1e-07 s⁻¹
same,kon,[12],1.39e+06 M⁻¹ s⁻¹
same,Kd,[13],< 0.001 nM
same,koff,[13],< 1e-07 s⁻¹
same,kon,[13],1.39e+06 M⁻¹ s⁻¹
same,Kd,[14],< 0.001 nM
same,koff,[14],< 1e-07 s⁻¹
same,kon,[14],1.25e+06 M⁻¹ s⁻¹
same,binding result,[15],no binding (tested: serial dilutions 20-0.65 nM)
same,Kd,[16],0.607 nM
same,koff,[16],0.000394 s⁻¹
same,kon,[16],649000 M⁻¹ s⁻¹
B4,binding result,[3],no binding (tested: serial dilutions 20-0.65 nM)
same,binding result,[4],no binding (tested: serial dilutions 20-0.65 nM)
same,binding result,[5],no binding (tested: serial dilutions 20-0.65 nM)
same,binding result,[6],no binding (tested: serial dilutions 20-0.65 nM)
same,binding result,[7],no binding (tested: serial dilutions 20-0.65 nM)
same,binding result,[8],no binding (tested: serial dilutions 20-0.65 nM)
same,Kd,[9],< 0.001 nM
same,koff,[9],< 1e-07 s⁻¹
same,kon,[9],963000 M⁻¹ s⁻¹
same,Kd,[10],0.606 nM
same,koff,[10],0.000263 s⁻¹
same,kon,[10],433000 M⁻¹ s⁻¹
same,Kd,[11],0.391 nM
same,koff,[11],0.000445 s⁻¹
same,kon,[11],1.14e+06 M⁻¹ s⁻¹
same,Kd,[12],< 0.001 nM
same,koff,[12],< 1e-07 s⁻¹
same,kon,[12],763000 M⁻¹ s⁻¹
same,Kd,[13],< 0.001 nM
same,koff,[13],< 1e-07 s⁻¹
same,kon,[13],1.09e+06 M⁻¹ s⁻¹
same,Kd,[14],< 0.001 nM
same,koff,[14],< 1e-07 s⁻¹
same,kon,[14],1.07e+06 M⁻¹ s⁻¹
same,Kd,[15],0.249 nM
same,koff,[15],5.53e-05 s⁻¹
same,kon,[15],222000 M⁻¹ s⁻¹
same,Kd,[16],0.208 nM
same,koff,[16],0.000121 s⁻¹
same,kon,[16],581000 M⁻¹ s⁻¹
B5,binding result,[2],no binding
B6,binding result,[2],no binding
